Data from patent US20210269521A1 (L AND L BIOPHARMA, published 2021).

Assays:
[1] = molecular target: T1, human TIM-3 extracellular domain-human IgG1 Fc fusion protein (human, UniProt Q8TDQ0 22-199); experiment: ELISA; pH 6.0, 37°C 7 days, against 0 day
T1 construct: Made in house or bought (ACROBiosystems TM3-H5258); also called TIM-3-hFc; not shown: human IgG1 Fc

[2] = molecular target: T2, human PD-1 extracellular domain protein expressed in Example 1 (tag not stated) (human, UniProt Q15116 25-170); experiment: ELISA; pH 6.0, 37°C 7 days, against 0 day
T2 construct: extracellular domain; also called PD-1 protein; not shown: human IgG1 Fc or his tag

[3] = molecular target: T1, human TIM-3 extracellular domain-human …; experiment: ELISA; preparation buffer, 37°C 7 days
[4] = molecular target: T2, human PD-1 extracellular domain protein …; experiment: ELISA; preparation buffer, 37°C 7 days
[5] = molecular target: T1, human TIM-3 extracellular domain-human …; experiment: ELISA; preparation buffer, 37°C 7 days, against 0 day
[6] = molecular target: T2, human PD-1 extracellular domain protein …; experiment: as above
[7] = molecular target: T1, human TIM-3 extracellular domain-human …; experiment: ELISA, EC50 of bispecific over EC50 of the monoclonal control
[8] = molecular target: T1, human TIM-3 extracellular domain-human …; experiment: ELISA; PBS, 37°C 14 days (degraded sample)
[9] = molecular target: T2, human PD-1 extracellular domain protein …; experiment: ELISA; PBS, 37°C 14 days (degraded sample)
[10] = molecular target: T1, human TIM-3 extracellular domain-human …; experiment: ELISA; pH 6.0, 37°C 7 days
[11] = molecular target: T2, human PD-1 extracellular domain protein …; experiment: ELISA; pH 6.0, 37°C 7 days
[12] = molecular target: T1, human TIM-3 extracellular domain-human …; experiment: ELISA; pH 5.5, 40°C 10 days
[13] = molecular target: T2, human PD-1 extracellular domain protein …; experiment: ELISA; pH 5.5, 40°C 10 days
[14] = molecular target: T1, human TIM-3 extracellular domain-human …; experiment: ELISA; pH 5.5, 37°C 7 days, against 0 day
[15] = molecular target: T2, human PD-1 extracellular domain protein …; experiment: ELISA; pH 5.5, 37°C 7 days, against 0 day
[16] = molecular target: T1, human TIM-3 extracellular domain-human …; experiment: ELISA; 28.5 mg/mL, His buffer pH 5.5, 37°C 0 day (-80°C)
[17] = molecular target: T2, human PD-1 extracellular domain protein …; experiment: as above
[18] = molecular target: T1, human TIM-3 extracellular domain-human …; experiment: ELISA; pH 5.5, 40°C 5 days, against 0 day
[19] = molecular target: T2, human PD-1 extracellular domain protein …; experiment: ELISA; pH 5.5, 40°C 5 days, against 0 day
[20] = molecular target: T1, human TIM-3 extracellular domain-human …; experiment: ELISA
Protocol: Goat-anti-hFc (Jackson, 109-005-008) was diluted to a concentration of 1 μg/ml with PBS buffer (pH 7.4) and added to a 96-well microplate (Corning, CLS3590-100EA) at a volume of 50 μl/well, then incubated in an incubator at 37° C. for 2 hours (Or the antigen TIM-3 was directly used to coat the microplate with a concentration of 0.5 μg/ml, and then the antibody to be tested was directly added). After discarding the liquid, a blocking solution of 5% skimmed milk (skimmed milk powder purchased from Bright) diluted with PBS was added at 200 μl per well, and the microplate was incubated for 2.5 hours at 37° C. or overnight (16-18 hours) at 4° C. for blocking. The blocking solution was discarded, and the microplate was washed 5 times with PBST buffer (PBS with pH 7.4 containing 0.05% tween-20), then 50 μl/well of 0.5 μg/ml TIM-3-hFc (Example 1) was added and incubated for 2 hours in a 37° C. incubator. After incubation, the microplate was washed 6 times with PB ST. 50 μl/well of supernatant (containing testing antibody) or different concentrations of the antibody to be tested was added, and the microplate was incubated at 37° C. for 2 hours and washed 5 times with PBST. 50 μl/well of 1:2500 diluted HRP-labeled secondary antibody (Jackson Immuno Research, 115-035-003) was added to the microplate, incubating at 37° C. for 1 hour. After washing the microplate 5 times with PBST, 50 μl/well TMB chromogenic substrate (KPL, 52-00-03) was added to the microplate, followed by incubating at room temperature for 10-15 min.
The above-mentioned TIM-3 and PD-1 bispecific antibodies of the present invention were optimized and designed using the methods of Example 2 and Example 5, and their affinity for TIM-3 and PD-1 were tested respectively.

B1: bispecific antibody LB141 (bispecific antibody, human IgG4 S228P, kappa)
light: EIVLTQSPATLSLSPGERATLSCRASKGVSTSGYSYLHWYQQKPGQAPRLLIYLASYLESGVPARFSGSGSGTDFTLTISSLEPEDFAVYYCQHSRDLPLTFGGGTKVEIKRTVAAPSVFIFPPSDEQLKSGTASVVCLLNNFYPREAKVQWKVDNALQSGNSQESVTEQDSKDSTYSLSSTLTLSKADYEKHKVYACEVTHQGLSSPVTKSFNRGEC
heavy: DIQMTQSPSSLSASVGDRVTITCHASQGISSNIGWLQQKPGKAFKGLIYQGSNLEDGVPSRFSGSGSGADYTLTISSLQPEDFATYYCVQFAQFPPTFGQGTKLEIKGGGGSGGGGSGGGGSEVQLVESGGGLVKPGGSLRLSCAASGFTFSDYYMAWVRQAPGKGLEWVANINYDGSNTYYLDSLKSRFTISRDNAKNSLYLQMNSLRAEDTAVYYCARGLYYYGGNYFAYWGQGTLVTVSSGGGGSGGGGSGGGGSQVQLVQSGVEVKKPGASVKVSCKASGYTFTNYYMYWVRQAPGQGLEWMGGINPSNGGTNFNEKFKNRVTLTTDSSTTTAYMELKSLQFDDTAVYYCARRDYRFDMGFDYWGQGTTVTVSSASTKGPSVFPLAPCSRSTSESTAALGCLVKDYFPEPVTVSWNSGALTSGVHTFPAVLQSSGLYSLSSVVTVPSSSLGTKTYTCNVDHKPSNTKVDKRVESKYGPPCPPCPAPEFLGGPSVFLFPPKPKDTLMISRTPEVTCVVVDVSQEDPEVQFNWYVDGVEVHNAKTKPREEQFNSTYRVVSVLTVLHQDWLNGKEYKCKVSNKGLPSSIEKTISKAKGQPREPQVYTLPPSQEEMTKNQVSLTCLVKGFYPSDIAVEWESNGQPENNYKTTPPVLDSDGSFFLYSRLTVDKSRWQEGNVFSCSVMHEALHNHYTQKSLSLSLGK
notes: ab6VL-(G4S)3-ab6VH-(G4S)3-PemVH-hIgG4 with PemVL-κ
Fold change of EC50 [1]: 0.83 ratio | Fold change of EC50 [2]: 0.79 ratio | EC50 [3]: 0.325 nM | EC50 [4]: 0.331 nM | Fold change of EC50 [5]: 1.07 ratio | Fold change of EC50 [6]: 0.86 ratio | Multiple of EC50 variation [7]: 0.83 ratio | EC50 [8]: 0.685 nM | EC50 [9]: 0.4 nM | EC50 [10]: 0.136 nM | EC50 [11]: 0.116 nM | EC50 [12]: 0.373 nM | EC50 [13]: 0.215 nM | Fold change of EC50 [14]: 1.06 ratio | Fold change of EC50 [15]: 0.89 ratio | EC50 [16]: 0.36 nM | EC50 [17]: 0.181 nM | Fold change of EC50 [18]: 0.95 ratio | Fold change of EC50 [19]: 1.1 ratio | EC50 [20]: 0.081 nM
